Data set [1] is described as follows: Differential scanning fluorimetry (DSF) melting temperature. The class given is physicochemical. As to the method: DSF was performed on a LC480 Lightcycler Instrument II (Roche). Purified recombinant protein was diluted to 5 μM in DSF buffer (PBS, pH 7.4, Sypro Orange 5×) with small molecule (10 μM VTX) or vehicle (0.05% DMSO) and then heated with a temperature gradient (0.01° C./s) from 25 to 95° C. Data were continuously acquired at ˜465 nm (excitation) and ˜580 nm (emission). Data was analyzed to generate first derivative curves in which the curve maximum was reported as the melting temperature of the protein.

A further data set has as its system LS2A R3M1 (Ab0786). Nature of the data set: BLI binding of LS2B variants to LS2A R3M1 (Ab0786) with indinavir. The note with it: for binding to LS2A clones (FIG. 17): biotinylated Ab0785 (R2M34) or Ab0786 (R3M1) captured, indinavir present. As to the method:
Binding kinetics were measured by biolayer interferometry (BLI). Biotinylated-Ab0785 (LS2A R2M34 Fab) or biotinylated-Ab0786 (LS2A R3M1 Fab) was captured by streptavidin biosensors and binding to Ab1071 (LS2B R5M2 Fab), Ab1072 (LS2B R7M1 Fab), and Ab1073 (LS2B R7M2 Fab) was measured in the presence of […].
In R6 of engineering, alanine scanning of clone R4M16 were performed to find improved binding to LS2A R3M2 (Ab0787) and LS2A R3M1 (Ab0786). Variants were screened for binding to LS2A (Ab0223) and LS2A R3M2 (Ab0787) with a single-point kinetic screen.
In R7, combination mutants from R6 were designed to generate further affinity variants. Variants were screened for binding to LS2A Ab0787 and Ab0786 with a single-point kinetic screen. Five-point kinetics was measured for a subset of molecules.
Bio-layer interferometry (BLI) data were measured using an Octet RED384 (ForteBio) instrument. Antigens of interest were immobilized on an AHC biosensor and loaded until a 0.4-0.6-nm signal was achieved. Purified antibodies were used as the analyte premixed with 10 μM Indinavir or 0.05% DMSO vehicle. PBSTB (PBS, pH 7.4, 0.05% Tween-20, 0.2% BSA) was used for all buffers for BLI. Data were analyzed using ForteBio Octet analysis software and kinetic parameters were determined using a 1:1 monovalent binding model.

Setting [2] is: thermostability by DSF, Table 26.

Positions count from the first letter of the chain named. In names and notes the source's numbering stands.

B1: Ab0775: anti-CD3 binding domain, FIGS. 7A-7C (antibody)
heavy: EVQLVESGGGLVQPGGSLRLSCAASGFTFNTYAMNWVRQAPGKGLEWVGRIRSKYNNYATYYADSVKGRFTISRDDSKSILYLQMNSLRAEDTAVYYCVRHGNFGNSYVSWFAYWGQGTLVTVSSGGGGSGGGGSGGGGSDIQVTQSPSSLSASVGDRVTITCRSSTGAVTTSNYANWVQQKPGKAFKGLIGGTNKRAPGVPSRFSGSLSGDDATLTISSLQPEDFATYYCALWYSNLWVFGQGTKLEIKGGGGSDKTHTCPPCPAPEAAGGPSVFLFPPKPKDTLMISRTPEVTCVVVDVSHEDPEVKFNWYVDGVEVHNAKTKPREEQYNSTYRVVSVLTVLHQDWLNGKEYKCKVSNKALGAPIEKTISKAKGQPREPQVYTLPPSRDELTKNQVSLTCLVKGFYPSDIAVEWESNGQPENNYKTTPPVLDSDGSFFLYSKLTVDKSRWQQGNVFSCSVMHEALHNHYTQKSLSLSPGK
modifications: light chain not cited; REGION 1..482: note = Ab0775 HC
With B1, in data set [1] (DSF, hSP34v68 R1 variants (Table 23)), the “TM (° C.)” value turned out to be 64.1 °C.

B2: Ab0898: humanized LS2A R2M34 (antibody)
heavy: QVQLVQSGAEVKKPGASVKVSCKASGYTFTSYWMHWVRQHPGQGLEWMGIIHPNSGGTSYAQKFQGRVTMTRDTSTSTVYMELSSLRSEDTAVYYCAMGDYVSRDYWGQGTLVTVSSGGGGSGGGGSGGGGSEIVLTQSPGTLSLSPGERATLSCRASSSVSSSYLHWYQQKPGQAPRLLIYSTSSRATGIPDRFSGSGSGTDFTLTISRLEPEDFAVYYCQQYSGYQFTFGQGTKLEIKGGGGSDKTHTCPPCPAPEAAGGPSVFLFPPKPKDTLMISRTPEVTCVVVDVSHEDPEVKFNWYVDGVEVHNAKTKPREEQYNSTYRVVSVLTVLHQDWLNGKEYKCKVSNKALGAPIEKTISKAKGQPREPQVYTLPPSRDELTKNQVSLTCLVKGFYPSDIAVEWESNGQPENNYKTTPPVLDSDGSFFLYSKLTVDKSRWQQGNVFSCSVMHEALHNHYTQKSLSLSPGK
modifications: light chain not cited; REGION 1..472: note = Ab0898 HC
notes: humanized LS2A R2M34
Consider B2, for which the “TM (° C.)” value in data set [1] (scFv-Fc format, LS2A R3 (Table 20)) was 52.5 °C.

B3: Ab1071: LS2B R5M2 Fab (antibody, V domains shown)
VH: EVQLVESGGGLVQPGGSLRLSCAASGFDFSSYSIHWVRQAPGKGLEWVASISPYYGSTYYADSVKGRFTISADTSKNTAYLQMNSLRAEDTAVYYCARYYEWYKYDLYAGSLGFDYWGQGTLVTVSS
VL: DIQMTQSPSSLSASVGDRVTITCRASQSVSSAVAWYQQKPGKAPKLLIYSASSLYSGVPSRFSGSRSGTDFTLTISSLQPEDFATYYCQQGGYSLITFGQGTKVEIK
For the molecule B3, the “binding to LS2A clones (FIG. 17)” value with LS2A R3M1 (Ab0786) is reported as “weaker binding to LS2A R3M1 compared to LS2A R2M34”.

B4: Ab1072: LS2B R7M1 Fab (antibody, V domains shown)
VH: B3 VH with S50A
VL: B3 VL
With B4, the “binding to LS2A clones (FIG. 17)” value in the data set with LS2A R3M1 (Ab0786) is “improved affinities”.

B5: Ab1044: LS2B; HC: S50A on Ab0902 (antibody, V domains shown)
VH: B3 VH with S50A
VL: B3 VL
Regarding B5, the Kd at LS2A R3M1 (Ab0786) (five-point kinetics, values equal Table 15 column LS2A Ab0786) was determined as 8.6 nM. For the same molecule, in data set [1] (Table 15), the “TM (° C.)” value came to 78.3 °C.

B6: Ab1069: anti-EpCAM T-LITE (CT) antibody, FIGS. 8A-8C, 9C (protein)
light: DIQMTQSPSSLSASVGDRVTITCSASSSVSSGNFHWYQQKPGKAPKLLIYRTSNLASGVPSRFSGSGSGTDYTLTISSLQPEDFATYYCQQWSGYPYTFGQGTKVEIKRTVAAPSVFIFPPSDEQLKSGTASVVCLLNNFYPREAKVQWKVDNALQSGNSQESVTEQDSKDSTYSLSSTLTLSKADYEKHKVYACEVTHQGLSSPVTKSFNRGEC
heavy 1: QVQLVQSGAEVKKPGASVKVSCKASGYTFTSYWMHWVRQHPGQGLEWMGMIHPNSGGTNYAQKFQGRVTMTRDTSTSTVYMELSSLRSEDTAVYYCAMGDYVSRDYWGQGTLVTVSSGGGGSGGGGSGGGGSEIVLTQSPGTLSLSPGERATLSCRASSSVSSSYLHWYQQKPGQAPRLLIYSTSSRATGIPDRFSGSGSGTDFTLTISRLEPEDFAVYYCQQYSGYQFTFGQGTKLEIKGGGGSDKTHTCPPCPAPEAAGGPSVFLFPPKPKDTLMISRTPEVTCVVVDVSHEDPEVKFNWYVDGVEVHNAKTKPREEQYNSTYRVVSVLTVLHQDWLNGKEYKCKVSNKALGAPIEKTISKAKGQPREPMVFDLPPSREEMTKNQVSLWCMVKGFYPSDIAVEWESNGQPENNYKTTPPVLDSDGSFFLYSKLTVDKSRWQQGNVFSCSVMHEALHNHYTQKSLSLSPGKHHHHHH
heavy 2: EVQLVESGGGLVQPGGSLRLSCAASGFTFSNYWMNWVRQAPGKGLEWVAQIRVKSENFATHYADSVKGRFTISRDDSKSTVYLQMNSLRAEDTAVYYCTLYDGFSWGQGTLVTVSSASTKGPSVFPLAPSSKSTSGGTAALGCLVKDYFPEPVTVSWNSGALTSGVHTFPAVLQSSGLYSLSSVVTVPSSSLGTQTYICNVNHKPSNTKVDKKVEPKSCDKTHTCPPCPAPEAAGGPSVFLFPPKPKDTLMISRTPEVTCVVVDVSHEDPEVKFNWYVDGVEVHNAKTKPREEQYNSTYRVVSVLTVLHQDWLNGKEYKCKVSNKALGAPIEKTISKAKGQPREPQVYTLPPIRELMTSNQVSLSCAVKGFYPSDIAVEWESNGQPENNYKTTPPVLDSDGSFFLVSKLTVDKSRWQQGNVFSCSVMHEALHNHYTQKSLSLSPGK
modifications: REGION 1..215: note = Ab1069 Hole LC; REGION 1..478: note = Ab1069 Knob KC; REGION 1..446: note = Ab1069 Hole HC
In the case of B6, the “TM (° C.)” value in data set [1] (thermostability by DSF, Table 27) was found to be 72.0 °C.

B7: Ab0785: LS2A R2M34 Fab, His-Tag, Avi-Tag (antibody, V domains shown)
VH: QVQLVQSGAEVKKPGASVKVSCKASGYTFTSYWMHWVRQHPGQGLEWMGIIHPNSGGTSYAQKFQGRVTMTRDTSTSTVYMELSSLRSEDTAVYYCAMGDYVSRDYWGQGTLVTVSS
VL: EIVLTQSPGTLSLSPGERATLSCRASSSVSSSYLHWYQQKPGQAPRLLIYSTSSRATGIPDRFSGSGSGTDFTLTISRLEPEDFAVYYCQQYSGYQFTFGQGTKLEIK
Take B7: the “TM (° C.)” value in data set [1] (Table 19) worked out at 70.9 °C.

B8: Ab0788: LS2A R3M3 Fab, HC: S58N on R2M34 (antibody)
heavy: QVQLVQSGAEVKKPGASVKVSCKASGYTFTSYWMHWVRQHPGQGLEWMGIIHPNSGGTNYAQKFQGRVTMTRDTSTSTVYMELSSLRSEDTAVYYCAMGDYVSRDYWGQGTLVTVSSASTKGPSVFPLAPSSKSTSGGTAALGCLVKDYFPEPVTVSWNSGALTSGVHTFPAVLQSSGLYSLSSVVTVPSSSLGTQTYICNVNHKPSNTKVDKKVEPKSCGGGGSHHHHHHGGGGSGLNDIFEAQKIEWHEG
VL: B7 VL
Regarding B8, the “TM (° C.)” value in data set [1] (Table 19) was 70.1 °C.

B9: Ab1018: anti-EpCAM binding domain, FIGS. 8A-8C (antibody, V domains shown)
VH: EVQLVESGGGLVQPGGSLRLSCAASGFTFSNYWMNWVRQAPGKGLEWVAQIRVKSENFATHYADSVKGRFTISRDDSKSTVYLQMNSLRAEDTAVYYCTLYEGFSWGQGTLVTVSS
VL: DIQMTQSPSSLSASVGDRVTITCSASSSVSSGNFHWYQQKPGKAPKLLIYRTSNLASGVPSRFSGSGSGTDYTLTISSLQPEDFATYYCQQWSGYPYTFGQGTKVEIK
In the case of B9, in data set [1] (setting [2]), the “TM (° C.)” value was found to be 69.9 °C.

B10: Ab1020: anti-EpCAM binding domain, FIGS. 8A-8C (antibody, V domains shown)
VH: B9 VH with N35H, E102D
VL: B9 VL
Consider B10, for which the “TM (° C.)” value in data set [1] (setting [2]) was found to be 68 °C.

B11: Ab1065 (antibody, V domains shown)
VH: B9 VH
VL: B9 VL with W92A
Regarding B11, the “TM (° C.)” value in data set [1] (setting [2]) was found to be 72.3 °C.

B12: Ab1066: anti-EpCAM binding domain, FIGS. 8A-8C (antibody, V domains shown)
VH: B9 VH with E102D, G103A
VL: B9 VL with W92A
B12: the “TM (° C.)” value in data set [1] (setting [2]) is 70.4 °C.

B13: Ab1024: anti-EpCAM binding domain, FIGS. 8A-8C (antibody, V domains shown)
VH: B9 VH with A63V, E102D
VL: B9 VL
B13: the “TM (° C.)” value in data set [1] (setting [2]) is 73.2 °C.

B14: Ab1026: anti-EpCAM binding domain, FIGS. 8A-8C (antibody, V domains shown)
VH: B9 VH with E102D
VL: B9 VL with W92A
Consider B14, for which the “TM (° C.)” value in data set [1] (setting [2]) turned out to be 69.1 °C.

B15: Ab1022: anti-EpCAM binding domain, FIGS. 8A-8C (antibody, V domains shown)
VH: B9 VH with A40H, E102D
VL: B9 VL
With B15, the “TM (° C.)” value in data set [1] (setting [2]) was found to be 69.6 °C.

Source of the values: patent US20240190987A1, “Engineered EpCam Binding Antibodies” (TigaTX, priority 2021, published 2024).
